The text below walks through data of doi:10.1101/2023.06.14.544911.

Common to all, as to experiment: pull-down
Data set [1] has as its target T1, ZCCHC3 MF R168/247S R168S;R247S (human) (UniProt Q9NUD5).
T1 sequence: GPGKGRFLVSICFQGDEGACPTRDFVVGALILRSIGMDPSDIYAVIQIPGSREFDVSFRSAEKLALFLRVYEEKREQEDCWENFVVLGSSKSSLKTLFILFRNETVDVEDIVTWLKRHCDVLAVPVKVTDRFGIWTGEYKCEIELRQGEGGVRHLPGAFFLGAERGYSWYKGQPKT

The subject of the next data set is ZCCHC3 MF R168S (human).
A further data set deals with ZCCHC3 MF R247S (human).

In the case of HIV-1 LTR (R-U5) RNA, the binding signal was 15 % of WT MF in data set [1], 50 % of WT MF in the data set on ZCCHC3 MF R168S (human) and 50 % of WT MF in the data set with ZCCHC3 MF R247S (human).
